These results are taken from article PMC3302758 (Molecular Biology of the Cell, 2012).

This assay addresses Cystic fibrosis transmembrane conductance regulator (CFTR), wild type, transiently expressed in HEK293 cells (UniProt P13569 1-1480). Briefly: co-IP.

Chain of Cystic fibrosis transmembrane conductance regulator (CFTR), wild type, transiently expressed in HEK293 cells (P13569 whole entry): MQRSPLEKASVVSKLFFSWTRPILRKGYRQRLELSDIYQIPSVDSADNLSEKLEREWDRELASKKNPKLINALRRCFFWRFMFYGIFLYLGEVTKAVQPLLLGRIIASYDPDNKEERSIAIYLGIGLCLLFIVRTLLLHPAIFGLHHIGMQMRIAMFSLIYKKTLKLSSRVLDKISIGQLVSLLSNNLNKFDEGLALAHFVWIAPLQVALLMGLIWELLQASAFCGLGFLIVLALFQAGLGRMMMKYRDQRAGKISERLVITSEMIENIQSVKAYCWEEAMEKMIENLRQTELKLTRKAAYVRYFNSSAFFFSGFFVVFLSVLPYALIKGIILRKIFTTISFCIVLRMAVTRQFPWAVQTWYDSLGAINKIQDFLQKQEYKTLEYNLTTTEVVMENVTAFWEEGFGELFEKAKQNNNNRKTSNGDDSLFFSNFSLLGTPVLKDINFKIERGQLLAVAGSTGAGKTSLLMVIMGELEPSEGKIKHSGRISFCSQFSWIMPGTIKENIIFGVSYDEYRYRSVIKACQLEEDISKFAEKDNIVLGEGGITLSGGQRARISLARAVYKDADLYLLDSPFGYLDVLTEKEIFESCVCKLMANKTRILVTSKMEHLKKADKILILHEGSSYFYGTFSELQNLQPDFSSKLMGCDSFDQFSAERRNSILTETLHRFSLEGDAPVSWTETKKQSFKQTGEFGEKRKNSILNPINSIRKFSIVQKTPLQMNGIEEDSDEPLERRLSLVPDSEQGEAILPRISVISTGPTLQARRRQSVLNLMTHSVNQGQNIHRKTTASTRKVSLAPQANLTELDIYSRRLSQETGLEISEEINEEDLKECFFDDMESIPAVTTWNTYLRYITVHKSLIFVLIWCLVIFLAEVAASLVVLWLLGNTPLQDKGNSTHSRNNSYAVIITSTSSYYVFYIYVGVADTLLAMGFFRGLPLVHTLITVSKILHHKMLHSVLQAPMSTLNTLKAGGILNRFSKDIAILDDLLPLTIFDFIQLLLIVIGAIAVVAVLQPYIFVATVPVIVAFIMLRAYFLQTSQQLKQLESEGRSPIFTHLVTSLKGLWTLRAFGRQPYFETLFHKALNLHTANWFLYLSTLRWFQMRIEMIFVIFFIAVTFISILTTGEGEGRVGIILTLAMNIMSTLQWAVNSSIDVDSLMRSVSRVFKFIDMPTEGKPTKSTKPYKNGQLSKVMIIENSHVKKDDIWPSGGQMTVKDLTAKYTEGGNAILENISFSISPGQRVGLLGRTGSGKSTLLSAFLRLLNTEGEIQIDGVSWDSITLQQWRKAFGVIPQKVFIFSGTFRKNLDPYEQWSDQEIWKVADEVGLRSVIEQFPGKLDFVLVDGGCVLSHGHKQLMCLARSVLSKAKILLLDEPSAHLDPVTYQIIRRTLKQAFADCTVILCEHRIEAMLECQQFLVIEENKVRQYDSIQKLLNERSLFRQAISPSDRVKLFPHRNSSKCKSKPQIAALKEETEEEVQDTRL

B1: 14-3-3ε, endogenous in HEK293 cells (natural protein, human (endogenous in HEK293), UniProt P62258 1-255, looked up)
chain: MDDREDLVYQAKLAEQAERYDEMVESMKKVAGMDVELTVEERNLLSVAYKNVIGARRASWRIISSIEQKEENKGGEDKLKMIREYRQMVETELKLICCDILDVLDKHLIPAANTGESKVFYYKMKGDYHRYLAEFATGNDRKEAAENSLVAYKAASDIAMTELPPTHPIRLGLALNFSVFYYEILNSPDRACRLAKAAFDDAIAELDTLSEESYKDSTLIMQLLRDNLTLWTSDMQGDGEEQNKEALQDVEDENQ
Turning to B1, the “fold increase of the co-precipitate with forskolin against basal” value amounted to 3.1 fold.
